# B1: SlPPK (Sulfurovum lithotrophicum) (protein)
# chain: MKKNIYKKELYKLQVELVKFQKYVIEENVAVCLVLEGRDTAGKDGTIKRFTEHLSPREARTVALGVPSDKEKKSWYFQRYVPHLPSAGEIVFFNRSWYNRAGVEKVMGFCTKKQYKAFMEEVGSFEQMLTHSNIRFFKYYLDITKKEQKKRLEARKTDPLKQWKLSPIDAKAQKMWDAYSKARDDMFNKTSFIYAPWYVVHTDDKKEARINIMKHFLSLNDYPDKDKALLVYDHDVICKFDPVCYEKEMIAP
# B2: LhPPK (Lampropedia hyalina DSM 16112) (protein)
# chain: MTRKESPPMEAFKKYRISPKNTLKDIDPSDKPFSFGTKKDELQRLDELAVELDDLQNTLYAGKRRKVLLILQGLDTSGKDGTIRWVFSRTSPLGVHVAAFKAPSERERAHDFLWRCHAVVPANGELTVWNRSHYEDVLVPPVEGWIDKAETQRRYGHINDFERLLSETGTTIVKCMLHISNEEQRERLQDRLKDPGKNWKFAADDLSTRAKWNDYQRAYEQALQATSTPHAPWYVIPANSKRHRNLMVAQLLVQTLRDMKLRLPPPNLAFKDLVVN
# Assays:
# Experiment in all cases: HPLC nucleotide assay
# [1] = target: T1, AtAdk (Arabidopsis thaliana, UniProt Q9LZG0); type: biochemical; details: phosphate donor; 10 mM adenosine, 20 mM MgCl2, Tris-HCl pH 8.0, 45 °C
# T1 construct: gene ADK2
# [2] = substrate: Nc1ncnc2c1ncn2[C@@H]1O[C@H](COP(=O)(O)OP(=O)(O)O)[C@@H](O)[C@H]1O; type: biochemical, Sulfurovum lithotrophicum; details: polyP6 as phosphate donor, MgCl2, Tris-HCl pH 8.0, 37 °C (routine assay)
# Excerpt: HPLC nucleotide assay on SlPPK
# [3] = substrate: Nc1ncnc2c1ncn2[C@@H]1O[C@H](COP(=O)(O)O)[C@@H](O)[C@H]1O; type: biochemical, Lampropedia hyalina; details: polyP6 as phosphate donor, MgCl2, Tris-HCl pH 8.0, 37 °C (routine assay)
# Excerpt: HPLC nucleotide assay on LhPPK
# T1 sequence (Q9LZG0 whole entry): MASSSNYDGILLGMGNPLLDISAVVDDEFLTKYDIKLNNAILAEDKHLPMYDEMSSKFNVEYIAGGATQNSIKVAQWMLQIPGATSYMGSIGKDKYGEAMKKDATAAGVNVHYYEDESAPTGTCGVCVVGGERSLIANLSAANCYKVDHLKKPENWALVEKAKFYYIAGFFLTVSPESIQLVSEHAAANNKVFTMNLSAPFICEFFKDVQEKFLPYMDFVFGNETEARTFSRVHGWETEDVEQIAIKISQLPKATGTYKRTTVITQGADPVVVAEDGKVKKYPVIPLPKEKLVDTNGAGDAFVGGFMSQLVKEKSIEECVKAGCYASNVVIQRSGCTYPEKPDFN
molecule,measurement,setting,value
Nc1ncnc2c1ncn2[C@@H]1O[C@H](COP(=O)(O)OP(=O)(O)OP(=O)(O)O)[C@@H](O)[C@H]1O [ATP],HPLC nucleotide assay,[1],"conversion of adenosine to AMP by AtAdk, which required ATP as a phosphate donor"
B1,Km,[2],0.61 mM
same,Vmax,[2],1400 µM/min
same,kcat,[2],140 s⁻¹
same,kcat/Km,[2],230000 M⁻¹ s⁻¹
B2,Km,[3],5.70 mM
same,Vmax,[3],860 µM/min
same,kcat,[3],92 s⁻¹
same,kcat/Km,[3],16100 M⁻¹ s⁻¹

# — publication PMC10992290, “In vitro biosynthesis of ATP from adenosine and polyphosphate” (Bioresources and Bioprocessing, 2021)
